In patent publication US20060286611A1, “Antibodies against biotinylated histones and related proteins and assays related thereto” (Board of Regents of University of Nebraska, priority 2005, published 2006):
Entries after “also recorded” stand apart in the source; their conditions may differ. No end group written: not given here. Me2 = dimethyl-lysine (dimethyl-epsilon-NH2-L-lysine)

How the values were obtained:
biotinidase [1] = target: T1, biotinidase (Homo sapiens, UniProt P43251); assay: Enzymatic biotinylation of synthetic histone H3 peptides by biotinidase; format: biochemical; settings: biotinidase and biocytin, 45 min
T1 construct: 60 μL of human plasma; from tissue; host or cells: human plasma
T1 sequence (P43251 22-523): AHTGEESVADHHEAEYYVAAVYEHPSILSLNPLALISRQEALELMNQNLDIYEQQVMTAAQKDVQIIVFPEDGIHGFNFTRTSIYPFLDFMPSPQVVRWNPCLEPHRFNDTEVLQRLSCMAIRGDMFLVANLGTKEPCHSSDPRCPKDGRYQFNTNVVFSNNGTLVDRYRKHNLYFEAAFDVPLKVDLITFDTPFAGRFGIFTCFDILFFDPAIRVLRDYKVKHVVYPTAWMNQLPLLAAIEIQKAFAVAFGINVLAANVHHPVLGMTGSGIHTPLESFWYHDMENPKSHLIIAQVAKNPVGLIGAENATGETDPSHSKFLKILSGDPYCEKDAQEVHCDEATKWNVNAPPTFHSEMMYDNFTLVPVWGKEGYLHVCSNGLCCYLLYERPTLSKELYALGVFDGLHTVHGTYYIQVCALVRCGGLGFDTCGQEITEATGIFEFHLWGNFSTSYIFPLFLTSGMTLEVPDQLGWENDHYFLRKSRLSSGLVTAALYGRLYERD

biotinidase [2] = target: T1, biotinidase; assay: Enzymatic biotinylation of synthetic histone H2A and H2A.X peptides by biotinidase; format: biochemical; settings: human plasma as source of biotinidase, 75 μmol/L biocytin, pH 8.0, 37° C., up to 45 minutes
Text: In Examples described above, the inventors developed a procedure to identify amino acid residues in histones that are targets for biotinylation. […] Amino acid substitutions (e.g., lysine-to-alanine substitutions) in synthetic peptides are used to corroborate identification of biotinylation sites. In addition, amino acid modifications (e.g., acetylation of lysines) in peptides can be used to investigate the cross-talk between biotinylation of histones and other known modifications of histones.
Peptides from both the N- and C-terminal regions of histone H2A and H2A.X were included in the analysis of biotinylation sites. […] Reactions were quenched by adding an equal volume of Tricine gel loading buffer (Invitrogen, Carlsbad, Calif.).

Substance | enzymatic biotinylation by biotinidase, peptide-bound biotin probed with streptavidin-peroxidase (biotinidase [1]) | enzymatic biotinylation by biotinidase, peptide-bound biotin probed with streptavidin peroxidase (biotinidase [2])
K4A1-9: histone H3 amino acids 1 to 9, K4 substituted with alanine (ARTAQTARK) [Peptide K4A1-9] | barely detectable | 
K9A9-16: histone H3 amino acids 9 to 16, K9 substituted with alanine (ASTGGKAP) [Peptide K9A9-16] | poor target for biotinylation | 
K125,129A122-129: C122-129 with K125 and K129 substituted with alanine (SHHAAKGA) |  | considerable decrease of biotinylation
TARASTGG [Peptide K9A6-13, histone H3 6-13, K9 substituted with alanine] | no biotinylation was observed | 
SEQ ID NO:74: histone H2A peptide containing acetylated K9 and free K5 (SGRGKTGGK(Ac)) |  | not a target for biotinylation
K13A,T16S12-20: T16S12-20 with K13 substituted with alanine (AAAKSRSSR) |  | No biotinylation was detectable
N18-25: histone H3 amino acids 18-25, including K18 and K23 (RKQLATKA; listed as Homo sapiens) [Peptide N18-25] | better substrate for biotinylation | 
K4,9A1-9: histone H3 amino acids 1 to 9, K4 and K9 substituted by alanine (ARTAQTARA) | no binding of biotin was detectable | 
ATVGPKAPSG [Peptide C122-131, C-terminus of histone H2A.X, amino acids 122-131] |  | not biotinylated
K9,14A9-16: histone H3 amino acids 9 to 16, K9 and K14 substituted with alanine (ASTGGAAP) | no binding of biotin was detectable | 
K18,23A18-25: histone H3 amino acids 18-25, K18 and K23 substituted with alanine (AQLATAAA) | No biotinylation was detected | 
K13A12-20: histone H2A N12-20, K13 substituted with alanine (AAAKTRSSR) [Peptide K13A12-20] |  | did not render K15 a good target
K125,127,129A122-129: C122-129 with all lysine residues substituted with alanine (SHHAAAGA) |  | no biotinylation was detectable
SEQ ID NO:76: histone H2A N7-14 with acetylation of K13 (GGKARAK(Ac)A) |  | decreased the biotinylation of K9
SEQ ID NO:75: histone H2A N7-14 with dimethylation of K13 (GGKARAK(Me2)A) |  | decreased the biotinylation of K9
K125,127A122-129: C122-129 with K125 and K127 substituted with alanine (SHHAAAGK) |  | decreased only moderately
K13,15A,T16S12-20: T16S12-20 with both lysine residues substituted with alanine (AAAASRSSR) |  | no biotinylation was detectable

Substance | enzymatic biotinylation by biotinidase, peptide-bound biotin probed with streptavidin-peroxidase (biotinidase [1]) | enzymatic biotinylation by biotinidase, peptide-bound biotin probed with streptavidin peroxidase (biotinidase [2])
Q6T,K5A1-9: Q6T1-9 with K5 substituted with alanine (SGRGATGGK) |  | decreased biotinylation only moderately
K18,23A16-23: histone H3 amino acids 16 to 23, K18 and K23 substituted with alanine (PRAQLATA) | no binding of biotin was detectable | 
K14A9-16: histone H3 amino acids 9 to 16, K14 substituted with alanine (KSTGGAAP) [Peptide K14A9-16] | heavily biotinylated | 
K127,129A122-129: C122-129 with K127 and K129 substituted with alanine (SHHAAAGA) |  | considerable decrease of biotinylation
GGKARAKA [Peptide N7-14, histone H2A amino acids 7-14] |  | good target for biotinylation; also recorded: heavily biotinylated; also recorded: moderate target for biotinylation
SHHKAKGK [Peptide C122-129, histone H2A amino acids 122-129] |  | good target for biotinylation; also recorded: good substrate for biotinylation
K15A,T16S12-20: T16S12-20 with K15 substituted with alanine (AKAASRSSR) |  | decreased moderately
GKKATQASQEY [Peptide C132-142, C-terminus of histone H2A.X, amino acids 132-142] |  | not biotinylated
K13,15A12-20: histone H2A N12-20, both lysine residues substituted with alanine (AAAATRSSR) |  | no biotinylation was detectable
AKAKTRSSR [Peptide N12-20, histone H2A amino acids 12-20] |  | not a good target; also recorded: poor target for biotinylation
SEQ ID NO:73: histone H2A N1-9 with acetylation of K5 (SGRGK(Ac)TGGK) |  | moderate decrease
Q6T,K9A1-9: Q6T1-9 with K9 substituted with alanine (SGRGKTGGA) |  | substantially decreased biotinylation
SGRGKTGGK [Peptide Q6T1-9, N-terminus of histone H2A.X, amino acids 1-9] |  | good targets for biotinylation
K15A12-20: histone H2A N12-20, K15 substituted with alanine (AKAATRSSR) [Peptide K15A12-20] |  | good target for biotinylation
AKAKSRSSR [Peptide T16S12-20, N-terminus of histone H2A.X, amino acids 12-20] |  | good targets for biotinylation; also recorded: biotinylated only moderately
K5A1-9: histone H2A N1-9, K5 substituted with alanine (SGRGAQGGK) [Peptide K5A1-9] |  | did not decrease biotinylation
K5,9A1-9: histone H2A N1-9, both lysine residues substituted with alanines (SGRGAQGGA) |  | no biotinylation was detectable
